In patent US20220106596A1, “A METHOD OF GENE EDITING” (University of Washington, priority 2019, published 2022):

B1: SH56: shRNA cloned in pTRIPZ (Dharmacon), target gene 12B12, ORC1L; SEQ ID NO: 108 (nucleic acid)
chain: GTTGACAGTGAGCGCGCCACGTTTCAACAGATATATTAGTGAAGCCACAGATGTAATATATCTGTTGAAACGTGGCTTGCCTACTGCCTC
B2: SH79: shRNA cloned in pTRIPZ (Dharmacon), target gene POLA1; SEQ ID NO: 113 (nucleic acid)
chain: GTTGACAGTGAGCGCGCAGATCATGTGTGAGCTAAATAGTGAAGCCACAGATGTATTTAGCTCACACATGATCTGCATGCCTACTGCCTC
modifications: listed as DNA, chemistry not fully specified
B3: Sh39: shRNA cloned in pTRIPZ (Dharmacon), target gene BLM; SEQ ID NO: 104 (nucleic acid)
chain: GTTGACAGTGAGCGTAAGCAGCGATGTGATTTGCATTAGTGAAGCCACAGATGTAATGCAAATCACATCGCTGCTTATGCCTACTGCCTC
B4: SH61: shRNA cloned in pTRIPZ (Dharmacon), target gene BLM; SEQ ID NO: 110 (nucleic acid)
chain: GTTGACAGTGAGCGAAACCTTCCTATGATATTGATATAGTGAAGCCACAGATGTATATCAATATCATAGGAAGGTTGTGCCTACTGCCTC
B5: SH9: shRNA cloned in pTRIPZ (Dharmacon), target gene 1B5, anapc5; SEQ ID NO: 102 (nucleic acid)
chain: GTTGACAGTGAGCGCGCGCATTATCTCAGCTACTTATAGTGAAGCCACAGATGTATAAGTAGCTGAGATAATGCGCTTGCCTACTGCCTC
B6: SH62: shRNA cloned in pTRIPZ (Dharmacon), target gene BLM; SEQ ID NO: 111 (nucleic acid)
chain: GTTGACAGTGAGCGCGGTGTCCATTACTTCAATATTTAGTGAAGCCACAGATGTAAATATTGAAGTAATGGACACCATGCCTACTGCCTC
B7: SH63: shRNA cloned in pTRIPZ (Dharmacon), target gene BLM; SEQ ID NO: 112 (nucleic acid)
chain: GTTGACAGTGAGCGAAGGTTATCTGTGCTACAATTGTAGTGAAGCCACAGATGTACAATTGTAGCACAGATAACCTGTGCCTACTGCCTC
B8: Sh41: shRNA cloned in pTRIPZ (Dharmacon), target gene Topo III alpha; SEQ ID NO: 106 (nucleic acid)
chain: GTTGACAGTGAGCGTGGACATTTACTGGCTCATGATTAGTGAAGCCACAGATGTAATCATGAGCCAGTAAATGTCCATGCCTACTGCCTC
B9: SH60: shRNA cloned in pTRIPZ (Dharmacon), target gene BLM; SEQ ID NO: 109 (nucleic acid)
chain: GTTGACAGTGAGCGCGGAGTCTGCGTGCGAGGATTATAGTGAAGCCACAGATGTATAATCCTCGCACGCAGACTCCTTGCCTACTGCCTC
B10: sh15: shRNA cloned in pTRIPZ (Dharmacon), target gene 2b3, pms2; SEQ ID NO: 103 (nucleic acid)
chain: GTTGACAGTGAGCGCCCGTAGTCACTGTATGGAATATAGTGAAGCCACAGATGTATATTCCATACAGTGACTACGGTTGCCTACTGCCTC
B11: Sh40: shRNA cloned in pTRIPZ (Dharmacon), target gene RMI1/BLAP75; SEQ ID NO: 105 (nucleic acid)
chain: GTTGACAGTGAGCGTGATCTAGTTACAGCTGAAGCATAGTGAAGCCACAGATGTATGCTTCAGCTGTAACTAGATCATGCCTACTGCCTC
B12: SH7: shRNA cloned in pTRIPZ (Dharmacon), target gene 1B3, POLE4; SEQ ID NO: 101 (nucleic acid)
chain: GTTGACAGTGAGCGCGGAGAGACTTGGATAATGCAATAGTGAAGCCACAGATGTATTGCATTATCCAAGTCTCTCCTTGCCTACTGCCTC
B13: Sh42: shRNA cloned in pTRIPZ (Dharmacon), target gene 12A5, MEIS2; SEQ ID NO: 107 (nucleic acid)
chain: GTTGACAGTGAGCGCGGACTTTATCAGAAACTCAAATAGTGAAGCCACAGATGTATTTGAGTTTCTGATAAAGTCCTTGCCTACTGCCTC

Each molecule was assayed on HT-1080/neo/HPRT editing lines (assay: HPRT gene editing (HAT selection) after shRNA inhibition of selected replication fork proteins). Conditions: shRNA induced 24 hours with doxycycline (1 μg/ml); AAV-HPe3 MOI 2×10^4.
Assay type: cell-based, human
Experimental: (§1) To determine the effect of shRNA specific for selected replication fork proteins on gene editing, experiments were performed using the HT-1080/neo/HPRT editing lines. Each gene indicated in Table 8 below was inhibited with a shRNA (sequences provided in Table 7 below) expressed from a lentivirus vector.
(§2) HPRT and neo gene editing frequencies were measured by G418 or HAT selection and normalized to a cell that was not treated with a shRNA.
(§3) Cells were first transduced with a lentivirus expressing a shRNA specific for the targeted genes. 2×10^4 HT-1080 cells transduced with the specific shRNAs were then plated in 6-well plates on day 1, and the expression of the shRNA was induced for 24 hours with doxycycline (1 μg/ml). On day 2, cells were transduced with AAV-HSN or AAV-HPe3 at a MOI of 2×10^4. On day 4, the cells were treated with trypsin and 0.1% of the cells were replated without selection in 6-well plates to determine the number of colony forming units. The remainder of the cells were replated in 6-well plates for further analysis of gene editing frequency.
(§4) On day 5, neo gene correction experiments were performed by the addition of G418 (700 ug/ml) to the experimental plates. On day 16, plates were washed with PBS and the colonies were stained with Coomassie brilliant blue G. The percentage of neo gene correction was calculated as the number of G418-resistant CFU per total CFU for each original well. On day 6, HPRT gene correction experiments were performed by adding 1× HAT (hypoxanthine-aminopterin-thymidine medium) to the experimental plates. On day 16, plates were washed with PBS and the colonies were stained with Coomassie brilliant blue G. The percentage of HPRT gene correction was calculated as the number of HAT-resistant CFU per total CFU for each original well.

| Molecule | HAT (HPRT) gene editing frequency normalized to a cell not treated with a shRNA |
| --- | --- |
| B1 | 2.11 |
| B2 | 2.46 |
| B3 | 3.8 |
| B4 | 2.82 |
| B5 | 29.10 |
| B6 | 2.34 |
| B7 | 0.92 |
| B8 | 1.66 |
| B9 | 1.38 |
| B10 | 17.59 |
| B11 | 1.61 |
| B12 | 8.24 |

The molecules below were run on HT-1080/neo/HPRT editing lines (assay: neo gene editing (G418 selection) after shRNA inhibition of selected replication fork proteins). Conditions: shRNA induced 24 hours with doxycycline (1 μg/ml); AAV-HSN MOI 2×10^4.
Assay type: cell-based, human
Experimental: as §1, §2, §3, §4

| Molecule | G418 (neo) gene editing frequency normalized to a cell not treated with a shRNA |
| --- | --- |
| B1 | 2.07 |
| B2 | 1.24 |
| B3 | 1.67 |
| B4 | 2.64 |
| B5 | 2.81 |
| B6 | 2.28 |
| B7 | 1.99 |
| B8 | 1.42 |
| B9 | 2.08 |
| B10 | 3.88 |
| B13 | 1.26 |
| B11 | 1.37 |
| B12 | 1.57 |
